Data reported in US7056679 (ANTYRA, dated 2006).
No end group written: not given here.

T1: DGI-2 (UniProt Q15004 1-111, limits assumed)
T1 construct: Soluble recombinant DGI-2 made by in vitro translation (RTS, pIVEX2.3-MCS vector) and coated on plates for the ELISA; vector tag not described; also called KIAA0101; DGI-2 polypeptide
T1 sequence (looked up): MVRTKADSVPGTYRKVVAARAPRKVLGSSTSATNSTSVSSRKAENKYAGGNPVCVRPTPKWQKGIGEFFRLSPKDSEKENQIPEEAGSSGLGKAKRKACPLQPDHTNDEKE


Target: T1, DGI-2
Assay: phage ELISA, coated DGI-2
Description: For analysis of individual target binders, colonies were picked and phage prepared as described above using helper phage, M13KO7. Ninety-six-well microtiter plates were coated with 500 ng/well of specific target protein, 500 ng/well lactate dehydrogenase (LDH) irrelevant or non-specific target, 500 ng/well of positive control antibody raised against ETAG, and negative control of non-fat milk powder-PBS 2% at 4° C. overnight. Plates were then blocked with 350 microliters/well PBS containing 2% non-fat milk for 1 hr at room temperature. One hundred microliters per well of phage from isolated clones were added and plates were incubated at room temperature for 2 hr after centrifuging samples for 20 minutes at 3500 rpm at 4° C. The phage solution was then removed, and the wells were washed three times with PBS at room temperature. Antibody raised against M13 conjugated to horseradish peroxidase (Pharmacia) was diluted 1:3000 in PBS-Tween and added to each well (100 µl/well). Incubation was for 1 hr at room temperature, followed by washing with PBS-(0.5%) Tween 3 times as described. Color was developed by addition of ABTS solution (100 µl/well; Boehringer, Indianapolis, Ind.). Plates were analyzed at 405 nm. A clone was considered "positive" if the $A405$ of the well was $\geq$2-fold over background.

Binder | binding result
VWAAWVEGSLLSPRQEPVRD (on M13 phage, pIII fusion with E-tag) [DGI-2-20R-4-G4] | binds
VWRDWVNGTVGLRNREKPGV (on M13 phage, pIII fusion with E-tag) [DGI-2-20R-3-A5] | binds
RKGWGVFCIPGLRFCDWSDP (not fully specified; cysteine pairing not given here, on M13 phage, pIII fusion with E-tag) [DGI-2-20R-3-B4] | binds
LFRFSGTGMASLPCVGWHLV (on M13 phage, pIII fusion with E-tag) [DGI-2-20F-PP-B6] | binds
LLLPVRWRDAQPRSLLMEWI (on M13 phage, pIII fusion with E-tag) [DGI-2-20F-PP-F8] | binds
RRGVCEIFTGWCVGQTNERP (not fully specified (bridges); cysteine pairing not given here, on M13 phage, pIII fusion with E-tag) [DGI-2-20R-4-H626] | binds
PVYRVAMCRISVGCSAGAWF (not fully specified; cysteine pairing not given here, on M13 phage, pIII fusion with E-tag) [DGI-2-20F-PP-C12] | binds
GGSLPVKSGQLVTCCTSKGG (on M13 phage, pIII fusion with E-tag) [DGI-2-20F-PP-F5] | binds
TIDVARRFGYGWWDLWLDGD (on M13 phage, pIII fusion with E-tag) [DGI-2-20R-3-C3] | binds
VQSGRDLGGLLRGGTGTEASP (on M13 phage, pIII fusion with E-tag) [DGI-2-20F-PP-D3] | binds
VVHTRAWGSWAYGFVLRNRG (on M13 phage, pIII fusion with E-tag) [DGI-2-20F-PP-F10] | binds
TPVAISIPAGVCSTSVCGRD (not fully specified; cysteine pairing not given here, on M13 phage, pIII fusion with E-tag) [DGI-2-20F-PP-C11] | binds
GRWDGWEVCGIWGADDCASG (not fully specified; cysteine pairing not given here, on M13 phage, pIII fusion with E-tag) [DGI-2-20R-4-H1] | binds
RSYPRLCKQKGGVIGRMLPG (on M13 phage, pIII fusion with E-tag) [DGI-2-20F-PP-B2] | binds
LVIGQRSFLSACSLFDGFCV (not fully specified; cysteine pairing not given here, on M13 phage, pIII fusion with E-tag) [DGI-2-20R-4-H814] | binds
RISVGQCGTSRCGGGRRGGG (not fully specified; cysteine pairing not given here, on M13 phage, pIII fusion with E-tag) [DGI-2-20F-PP-D1] | binds
GWSDFVATGSWSGQVSAALN (on M13 phage, pIII fusion with E-tag) [DGI-2-20R-4-F120] | binds
GSTRLRVTVRFCSETGTPGC (not fully specified; cysteine pairing not given here, on M13 phage, pIII fusion with E-tag) [DGI-2-20F-PP-G6] | binds
CYLSRLFRSGQGIGQFGHVE (on M13 phage, pIII fusion with E-tag) [DGI-2-20F-PP-A82] | binds
VCSGGKGTWLEIPDRVRSST (on M13 phage, pIII fusion with E-tag) [DGI-2-20F-PP-A22] | binds
LSLEGGWMWDTKGGDGGSAQ (on M13 phage, pIII fusion with E-tag) [DGI-2-20R-4-F93] | binds
MGADTCMGGKMPFDQMFGAV (on M13 phage, pIII fusion with E-tag) [DGI-2-20F-PP-E10] | binds
VGHLLSRCAHHSPGMGASPYG (on M13 phage, pIII fusion with E-tag) [DGI-2-20F-PP-B11] | binds
LWRRWSEGQLLGDGELRGDG (on M13 phage, pIII fusion with E-tag) [DGI-2-20R-3-B52] | binds
SVSGGGVFGTGGRVRHQVSG (on M13 phage, pIII fusion with E-tag) [DGI-2-20F-PP-C5] | binds
VGQSSGDARPLANLFVFPFV (on M13 phage, pIII fusion with E-tag) [DGI-2-20F-PP-F12] | binds
CGGWGAMWEAWVQGLNGAGC (not fully specified; cysteine pairing not given here, on M13 phage, pIII fusion with E-tag) [DGI-2-20R-3-D4] | binds

Binder | binding result
RRFVRCSVPVALRSAVPVSV (on M13 phage, pIII fusion with E-tag) [DGI-2-20F-PP-A10] | binds
WVVALRRIRLGLRRGVECLL (on M13 phage, pIII fusion with E-tag) [DGI-2-20F-PP-D5] | binds
SLLCVVCRPVSGGRALGGVP (not fully specified; cysteine pairing not given here, on M13 phage, pIII fusion with E-tag) [DGI-2-20F-PP-B42] | binds
VCGQRVARMQLNKTIRKLDS (on M13 phage, pIII fusion with E-tag) [DGI-2-20F-PP-A6] | binds
VTGTRFRGFAVACVRMGTWH (on M13 phage, pIII fusion with E-tag) [DGI-2-20F-PP-F2] | binds
GGDLGEQGVQLCPDVVRGGSL (on M13 phage, pIII fusion with E-tag) [DGI-2-20F-PP-A7] | binds
YAMSSRECGIRNSGLILSMW (on M13 phage, pIII fusion with E-tag) [DGI-2-20F-PP-C9] | binds
TFTRDVAGPAVSFVRLHSWN (on M13 phage, pIII fusion with E-tag) [DGI-2-20F-PP-A9] | binds
RVSYEMLGRRRRSMHGSSMR (on M13 phage, pIII fusion with E-tag) [DGI-2-20F-PP-A4] | binds
CCAWNGVGVGGLGWRVVVGP (on M13 phage, pIII fusion with E-tag) [DGI-2-20F-PP-H4] | binds
GHGAGDWAAELFVCPVAFLTGFAWR (on M13 phage, pIII fusion with E-tag) [DGI-2-20R-4-H2] | binds
RQRSGGRWVVDRVTRVASTSP (on M13 phage, pIII fusion with E-tag) [DGI-2-20F-PP-B12] | binds
VSGVPDGSMRAAQLASGYWC (on M13 phage, pIII fusion with E-tag) [DGI-2-20F-PP-G2] | binds
SVTISTSCRTGCPAGYLRRD (not fully specified; cysteine pairing not given here, on M13 phage, pIII fusion with E-tag) [DGI-2-20F-PP-D2] | binds
LFSATGCALMSGFCLGSDGS (not fully specified; cysteine pairing not given here, on M13 phage, pIII fusion with E-tag) [DGI-2-20R-3-C1] | binds
GASRVVDVGWRFWGKLWQRS (on M13 phage, pIII fusion with E-tag) [DGI-2-20F-PP-G5] | binds
SRELGKWGRLWQDWSSGNFS (on M13 phage, pIII fusion with E-tag) [DGI-2-20R-3-C11] | binds
DGRGWGAMWMRWAEGLGADI (on M13 phage, pIII fusion with E-tag) [DGI-2-20R-4-G114] | binds
DRHRAFVAEGLDGFRHSTGV (on M13 phage, pIII fusion with E-tag) [DGI-2-20F-PP-D4] | binds
EGQRVVFLFGALVAGLCWRDR (on M13 phage, pIII fusion with E-tag) [DGI-2-20F-PP-F3] | binds
WWREWVDGSLRGGGGTVLKD (on M13 phage, pIII fusion with E-tag) [DGI-2-20R-3-A122] | binds
GLYQRGLAPRCRGERFGVRN (on M13 phage, pIII fusion with E-tag) [DGI-2-20F-PP-C2] | binds
VVGYAQGDGLEGGLGSSRDGS (on M13 phage, pIII fusion with E-tag) [DGI-2-20F-PP-D8] | binds
FRMWVQSCFWGQPGTGCGEG (not fully specified; cysteine pairing not given here, on M13 phage, pIII fusion with E-tag) [DGI-2-20R-3-D2] | binds
SAFGCPLPRALGGGGARFYA (on M13 phage, pIII fusion with E-tag) [DGI-2-20F-PP-E11] | binds
RGSLLLTLPRLSGAVGTAYG (on M13 phage, pIII fusion with E-tag) [DGI-2-20F-PP-B3] | binds
